The source of these data is PMC6684588.

Assay [1] concerns the target activin A (UniProt P08476).
In assay [2] the target is activin B (UniProt P09529).
For assay [3], the target named is growth differentiation factor 11 (GDF11) (UniProt O95390).
Assay [4] concerns the target myostatin (GDF8) (UniProt O14793).
For assay [5], the target named is activin A (UniProt P08476). This is another data set of the same source.
In assay [6] the target is activin B (UniProt P09529). This is another data set of the same source.
The target in assay [7] is growth differentiation factor 11 (GDF11) (UniProt O95390). This is another data set of the same source.
In assay [8] the target is myostatin (GDF8) (UniProt O14793). This is another data set of the same source.
A further assay addresses ACE-083 (human). In words: SPR; detailed kinetics: ACE-083 captured on immobilized goat anti-human Fc-specific antibody; two-fold series of BMP6 (0.156 nM-5 nM) and BMP7 (0.078 nM-5 nM) injected in duplicate, association 210 sec, dissociation 600 sec, 100 μl/min; global fit to 1:1 model with mass transport term (BIAevaluation); means of two flow cells.
The target in assay [9] is ACE-083 (FST291-Fc fusion protein) (human). In words: SPR; Biacore T100, capture format at 37 °C; ACE-083 captured on an anti-human IgG Fc sensor chip, ligands injected as analytes in a concentration series in duplicate; association 210 sec, dissociation 600 sec (1200 sec for activin A and GDF11); global fit to a 1:1 binding model with mass transfer term; apparent KD. (In general: SPR reads the build-up and loss of mass on a sensor chip optically.)

Take ACE-083 (FST291-Fc fusion protein): the IC50 of inhibition of activin A signaling through its cognate receptors, CAGA12 dual-luciferase reporter-gene assay in A204 cells in the assay with activin A [1] turned out to be 0.0392 nM. This molecule came in with an IC50 of inhibition of activin B signaling through its cognate receptors, CAGA12 dual-luciferase reporter-gene assay in A204 cells with activin B [2] of 0.0492 nM. The IC50 of inhibition of GDF11 signaling through its cognate receptors, CAGA12 dual-luciferase reporter-gene assay in A204 cells in [3] came to 0.0759 nM. This molecule also yielded an IC50 of inhibition of GDF8 signaling through its cognate receptors, CAGA12 dual-luciferase reporter-gene assay in A204 cells with myostatin (GDF8) [4] of 0.676 nM.

Consider ACE-083 (Fc fusion), for which the Supplementary Figure S2: IC50 of ACE-083 for inhibition of activin A signalling through its cognate receptors, luciferase reporter-gene assay in A204 cells (representative curve of three experiments) with activin A [5] came out at 4.63 ng/mL. In the assay with activin B [6], this molecule returned a Supplementary Figure S2: IC50 of ACE-083 for inhibition of activin B signalling through its cognate receptors, luciferase reporter-gene assay in A204 cells (representative curve of three experiments) of 4.75 ng/mL. Also, the Supplementary Figure S2: IC50 of ACE-083 for inhibition of GDF11 signalling through its cognate receptors, luciferase reporter-gene assay in A204 cells (representative curve of three experiments) in [7] is 8.04 ng/mL. For the same molecule, the Supplementary Figure S2: IC50 of ACE-083 for inhibition of GDF8 signalling through its cognate receptors, luciferase reporter-gene assay in A204 cells (representative curve of three experiments) with myostatin (GDF8) [8] was found to be 81.9 ng/mL.

Take “BMP7 (from UniProt P18075 293-431) (ligand)”: in the assay with ACE-083 (human), the Kd came out at 0.291 nM; the koff – broadly, the first-order rate constant of dissociation – is 0.00196 s⁻¹; the on-rate constant (kon) (in general, the second-order rate constant of association) is 6.75e+06 M⁻¹ s⁻¹.

Regarding “myostatin (GDF8) (from UniProt O14793 267-375) (ligand)”, in assay [9], the Kd worked out at 0.348 nM, the koff amounted to 0.000185 s⁻¹ and the kon is 532000 M⁻¹ s⁻¹.

B1: activin B (ligand)
chain: GLECDGRTNLCCRQQFFIDFRLIGWNDWIIAPTGYYGNYCEGSCPAYLAGVPGSASSFHTAVVNQYRMRGLNPGTVNSCCIPTKLSTMSMLYFDDEYNIVKRDVPNMIVEECGCA
As for B1, in assay [9], the Kd was 0.0103 nM, the koff turned out to be 0.000199 s⁻¹ and the on-rate (kon) turned out to be 1.93e+07 M⁻¹ s⁻¹.

B2: activin A (ligand)
chain: GLECDGKVNICCKKQFFVSFKDIGWNDWIIAPSGYHANYCEGECPSHIAGTSGSSLSFHSTVINHYRMRGHSPFANLKSCCVPTKLRPMSMLYYDDGQNIIKKDIQNMIVEECGCS
With B2, in assay [9], the Kd is 0.0788 nM, the off-rate (koff) stood at 0.000155 s⁻¹ and the kon was determined as 1.97e+06 M⁻¹ s⁻¹.

B3: growth differentiation factor 11 (GDF11) (ligand)
chain: NLGLDCDEHSSESRCCRYPLTVDFEAFGWDWIIAPKRYKANYCSGQCEYMFMQKYPHTHLVQQANPRGSAGPCCTPTKMSPINMLYFNDKQQIIYGKIPGMVVDRCGCS
For the molecule B3, in assay [9], the Kd came to 0.0154 nM, the koff was found to be 7.2e-05 s⁻¹ and the on-rate constant (kon) was determined as 4.77e+06 M⁻¹ s⁻¹.
